Columns and labels:
[1] = target: T1, recombinant human G-CSF receptor (R&D systems 381-GR-050/CF) (human, UniProt Q99062 25-333); test: SPR; Biacore X100, multi-cycle kinetics; G-CSFR immobilised on a CM5 chip by amine coupling; analytes in 10 mM HEPES pH 7.4, 150 mM NaCl, 3.4 mM EDTA, 0.005% Tween-20; 25°C, 30 uL/min; 1:1 model, ka and kd from a linear fit of kobs against concentration; settings: both partners purified
T1 construct: granulocyte colony-stimulating factor receptor, human, recombinant; As recalled, this catalogue item is a soluble extracellular form of the receptor; also called rhG-CSFR; granulocyte colony-stimulating factor receptor; source: bought: R&D systems 381-GR-050/CF
T1 sequence: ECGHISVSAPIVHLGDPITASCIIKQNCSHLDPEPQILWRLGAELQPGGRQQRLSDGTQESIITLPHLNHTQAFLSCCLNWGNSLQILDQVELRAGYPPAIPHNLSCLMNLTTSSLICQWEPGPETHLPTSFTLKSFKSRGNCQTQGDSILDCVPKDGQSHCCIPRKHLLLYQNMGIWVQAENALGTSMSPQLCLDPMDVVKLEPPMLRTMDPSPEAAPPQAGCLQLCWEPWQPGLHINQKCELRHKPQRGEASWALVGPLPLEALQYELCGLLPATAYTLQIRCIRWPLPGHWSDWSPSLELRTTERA

[2] = target: T1, recombinant human G-CSF receptor (R&D …); test: as above; settings: both partners purified; remark: listed apart in the source

B1: recombinant human granulocyte colony-stimulating factor (USP RS Filgrastim) (ligand, UniProt P09919-2 31-204, looked up)
chain: TPLGPASSLPQSFLLKCLEQVRKIQGDGAALQEKLCATYKLCHPEELVLLGHSLGIPWAPLSSCPSQALQLAGCLSQLHSGLFLYQGLLQALEGISPELGPTLDTLQLDVADFATTIWQQMEELGMAPALQPTQGAMPAFASAFQRRAGGVLVASHLQSFLEVSYRVLRHLAQP
notes: granulocyte colony-stimulating factor, human, as filgrastim; printed size 19 kDa; The SPR methods name filgrastim; also called rhG-CSF; G-CSF; source: bought: USP RS Filgrastim, Sigma-Aldrich 1270435
Kd [1]: 1.4 nM | Kd [2]: 1.1 nM | koff [2]: 0.00049 s⁻¹ | kon [2]: 300000 M⁻¹ s⁻¹
